In patent publication US20260049134A1 (UNIVERSITY OF FLORIDA RESEARCH FOUNDATION, published 2026):
Residue numbers refer to the chain shown, from its start. In names and notes the source's numbering stands.

B1: HW-56 chimeric rabbit-human IgG1 LA/LA/PG (antibody, V domains shown)
VH: QSVKESEGGLFKPTDTLTLTCTASGFTVSTNAVTWVRQAPGNGLEYIGTIGRSGSAYFASWAKRRSTLTRDINLNTVTLKMTSLTAADTATYFCVRGSPGYRTAISIWGPGTLVTISS
VL: AVMTQTPSSTSAAVEGTVTINCQASQSISNRLSWFQQKPGQPPKLLIYQASTLASGVPSRFKGSGSGTEFTLTISGVQREDAATYYCLGSYSSSDASFGGGTKLEIKR
notes: Fc-silenced (L234A/L235A/P329G) IgG1, kappa; Alexa Fluor 647-labeled in single-step flow cytometry; Cluster C-45
B2: TH9-0022 (antibody, human IgG1, kappa, L234A L235A, V domains shown)
VH: QSLEESGGRLVTPGTPLTLTCTVSGFSLSSYAMNWVRQAPGKGLEWIGIINSYGSTYYASWAKGRFTISKTSTTVDLKITSPTTEDTATYFCARVTYDSYGYGYAPYGMDLWGPGTLVTVSS
VL: LVMTQTPSSTSNAVGGTVTIKCQASQSIGNVLAWYQQKPGQPPKLLIYAASTLASGVPSRVGGSRSGTEYTLTISGVQREDAATYYCLGSDSDSDIAFGGGTELEILR
notes: also called TH9-022; negative control
B3: HW-42 chimeric rabbit-human IgG1 LA/LA/PG (antibody, V domains shown)
VH: QSVKESEGGLFKPADTLTLTCTVSGFSLSSNEISWVRQAPGEGLEYIGIIDTGGRAYYAVWARSRSTITRNTNLNTVTLKMTSLTAADTATYFCARGGVDTEWYAFSSWGPGTLVTVPS
VL: SFVLTQPASVQVNLGQTVSLTCTADTLSRRYASWYQQKPGQAPVLLIFRDTSRPSGVPDRFSGSSSGDTATLTISGAQAGDEADYYCATSDGSGSNYQYVFGGGTQLTVTG
notes: Fc-silenced (L234A/L235A/P329G) IgG1, lambda; Alexa Fluor 647-labeled in single-step flow cytometry; Cluster C-1
B4: HW-1 chimeric rabbit-human IgG1 LA/LA/PG (antibody, V domains shown)
VH: QSLEESGGGLFKPTDTLTLTCTASGFSLGSSYAISWVRQAPGKELEWIGTIDSGRAYYARWAKSRSTITRNTNENTVTLKMTSLTAADTATYFCARDLIPTYSQDIWGPGTLVTISS
VL: B3 VL with F48Y, D68N, S95N, N96S, G111S
notes: Fc-silenced (L234A/L235A/P329G) IgG1, lambda; Alexa Fluor 647-labeled in single-step flow cytometry; Prototype of cluster C-1
B5: HW-28 chimeric rabbit-human IgG1 LA/LA/PG (antibody, V domains shown)
VH: QKQLVESGGRLVTPGTPLTLTCTASGFSLSSNAMSWVRQAPGEGLQWIGTISSGGSTYYASWAKGRFTISKTSTTVTLKMTSLTTEDTATYFCARGADLHRLWGPGTLVTVSS
VL: B3 VL with A24G, D25K, T26P, R30S, Y31F, L46V, F48Y, D68N, N96S
notes: Fc-silenced (L234A/L235A/P329G) IgG1, lambda; Alexa Fluor 647-labeled in single-step flow cytometry; Cluster C-45
B6: HW-97 chimeric rabbit-human IgG1 LA/LA/PG (antibody, V domains shown)
VH: QKQLVESGGRLVTPGTPLTLTCTVTGIDLSSHGMSWVRQAPGKGLEWIGVIYPSGSTWYASWARGRFTISKTSTTVDLKMTSLTTEDTATHFCARGDVGGADNNIWGPGTLVTVSS
VL: B3 VL with N13D, D25E, R30S, F48Y, D68N, N96S
notes: Fc-silenced (L234A/L235A/P329G) IgG1, lambda; Alexa Fluor 647-labeled in single-step flow cytometry; Prototype of cluster C-97
B7: HW-101 chimeric rabbit-human IgG1 LA/LA/PG (antibody, V domains shown)
VH: QEQLVESGGRLVTPGTPLTLTCKASGFSLGKYDMSWVRQAPGKGLEWIGTIYAGSGSTWYASWAKGRFTISKTSTTVDLKMTSLTTEDTATYFCARDFLGVNSIWGPGTLVTISS
VL: B3 VL with R30S, G40D, F48H, S65N, D68N, Y97F, Q98H, Y99F
notes: Fc-silenced (L234A/L235A/P329G) IgG1, lambda; Alexa Fluor 647-labeled in single-step flow cytometry; Cluster C-97
B8: HW-25 chimeric rabbit-human IgG1 LA/LA/PG (antibody, V domains shown)
VH: QSLEESGGRLVTPGTPLTLTCTVSGFSLSSYAMGWVRQAPGKGLEWIGIIDSRGSTYYATWAKGRFTISKTSTTVDLKITSPTTEDTATYFCAREDSYYYDSFNLWGPGTLVTVSS
VL: B3 VL with F48Y, D68N, N96S, Y99C
notes: as for B3
B9: HW-17 chimeric rabbit-human IgG1 LA/LA/PG (antibody, V domains shown)
VH: QSLGESRGRLVTPDETLTLTCTVSGIDLSSNAMSWVRQAPGEGLEWIGTINTGGRAYYASWAKGRFTISRTSTTVDLKMTSLTTEDTATYFCARERYSDGRAYDIWGPGTLVTISS
VL: B3 VL with F48Y, R49T, T51S, S52N, V57I, D68N, S90D, N96I
notes: as for B3
B10: HW-70 chimeric rabbit-human IgG1 LA/LA/PG (antibody, V domains shown)
VH: QSLEESGGRLVTPGTPLTLTCTVSGFSLSSNAMSWVRQAPGKGLEWIGTIDGYGYTYYASWAKGRFTVSKTSTTVDLKITSPTTEDTATYFCAREIYLGSNFWGPGTLVTISS
VL: B3 VL with F48Y, D68N, S90A, N96S, Y99F
notes: as for B3
B11: HW-81 chimeric rabbit-human IgG1 LA/LA/PG (antibody, V domains shown)
VH: QKQLVESGGGLVTPGGTLTLTCTVSGFSLSSNGVSWVRQAPGKGLEYIGLIRSIGSTYYATWAKGRFTISKTSTTVDLKITSPTTEDTATYFCARGGYRNGFKLWGPGTLVTVSS
VL: QPVLTQSPSVSAALGASAKLTCTLSSAHKTYYIEWYQQQHPGKAPRYLMQLQSDGSYTKGTGVPDRFSGSSSGADRYLIISSVQAEDEADYICGVIDSAVYVFGGGTQLTVTG
notes: as for B5

Assays:
[1] = molecular target: T1, PTPRG-Fc (ECD of human PTPRG, aa 20-736, fused to human Fc gamma 1) (human, UniProt P23470 20-736); experiment: ELISA on coated PTPRG-Fc
T1 construct: Made in-house in Expi293 cells; Used in ELISA and SPR; also called recombinant PTPRG-Fc; PTRPG; not shown: human IgG1 Fc (Fc gamma 1) after the hinge
T1 sequence: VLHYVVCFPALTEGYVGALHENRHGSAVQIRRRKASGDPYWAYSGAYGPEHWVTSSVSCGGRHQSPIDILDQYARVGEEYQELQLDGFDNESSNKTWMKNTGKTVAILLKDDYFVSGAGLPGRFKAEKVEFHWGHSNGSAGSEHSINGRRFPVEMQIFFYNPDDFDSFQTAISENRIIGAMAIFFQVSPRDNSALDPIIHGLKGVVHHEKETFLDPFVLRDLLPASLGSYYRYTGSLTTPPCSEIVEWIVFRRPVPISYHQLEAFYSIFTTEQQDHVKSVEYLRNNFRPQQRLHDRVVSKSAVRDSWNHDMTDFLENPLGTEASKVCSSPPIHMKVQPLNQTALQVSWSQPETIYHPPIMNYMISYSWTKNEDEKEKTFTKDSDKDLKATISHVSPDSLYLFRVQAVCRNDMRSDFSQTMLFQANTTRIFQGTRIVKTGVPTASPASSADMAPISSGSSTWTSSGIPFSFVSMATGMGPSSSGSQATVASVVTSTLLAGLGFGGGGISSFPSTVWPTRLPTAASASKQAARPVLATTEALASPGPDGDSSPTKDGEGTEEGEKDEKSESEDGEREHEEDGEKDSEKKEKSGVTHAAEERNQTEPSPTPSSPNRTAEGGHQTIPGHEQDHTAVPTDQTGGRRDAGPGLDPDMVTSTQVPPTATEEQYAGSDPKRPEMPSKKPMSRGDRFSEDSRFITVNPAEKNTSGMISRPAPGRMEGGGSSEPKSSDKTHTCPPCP
Protocol: (§1) Recombinant purified ECDs (50-150 ng) of each putative target protein were coated, incubated with 150 ng of the indicated primary antibody, and binding was detected using a peroxidase-conjugated anti-human Fab secondary antibody. Heatmap represents averages of technical triplicates. (8B) Target validation via siRNA knockdown. H929 cells were transfected with siRNA pools targeting the putative antibody targets ICAM1, CADM1, and PTPRG. Cells were then subjected to cognate IgG binding analysis via flow cytometry. (NT, non-targeting siRNA).
(§2) ELISA ELISA was conducted as described previously. Briefly, 50-150 ng of antigen was coated overnight in half-area 96-well plates at 4° C., blocked with 3% BSA at 37° C. for 1 h, and 150 ng of chimeric rabbit/human IgG1 was added, incubating for 2 h at 37° C. […] After incubating at 37° C. for 15 min-1 h (depending on intensity of controls), data were acquired using a SpectraMax M5 plate reader (Molecular Devices).

[2] = molecular target: T2, GARS-His (Sino Biological) (human, UniProt P41250 37-739, limits assumed); experiment: ELISA on coated GARS-His
T2 construct: Bought; also called GARS1; glycyl-tRNA synthetase; not shown: His tag of the bought protein
T2 sequence: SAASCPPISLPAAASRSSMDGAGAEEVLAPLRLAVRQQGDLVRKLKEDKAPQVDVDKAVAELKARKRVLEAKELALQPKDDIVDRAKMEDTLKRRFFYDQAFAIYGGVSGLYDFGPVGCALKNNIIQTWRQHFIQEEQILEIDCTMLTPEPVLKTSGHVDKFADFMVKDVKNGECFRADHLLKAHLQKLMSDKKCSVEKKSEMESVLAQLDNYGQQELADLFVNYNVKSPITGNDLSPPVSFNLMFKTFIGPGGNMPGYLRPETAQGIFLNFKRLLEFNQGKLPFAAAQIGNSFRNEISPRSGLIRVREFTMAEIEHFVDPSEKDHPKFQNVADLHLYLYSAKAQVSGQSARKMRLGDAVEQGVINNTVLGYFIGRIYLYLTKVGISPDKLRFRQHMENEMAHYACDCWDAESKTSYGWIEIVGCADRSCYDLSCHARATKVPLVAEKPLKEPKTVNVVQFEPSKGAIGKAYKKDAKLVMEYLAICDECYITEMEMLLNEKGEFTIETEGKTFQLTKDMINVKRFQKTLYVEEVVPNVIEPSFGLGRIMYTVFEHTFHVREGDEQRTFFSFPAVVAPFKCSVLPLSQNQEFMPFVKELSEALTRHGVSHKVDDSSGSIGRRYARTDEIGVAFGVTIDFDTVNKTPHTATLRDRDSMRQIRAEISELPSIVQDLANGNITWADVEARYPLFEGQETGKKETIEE
Protocol: as §1, §2

[3] = molecular target: T3, CADM1, endogenous in H929 multiple myeloma cells (human, UniProt Q9BY67 45-442); experiment: flow cytometry, H929 + NT Green siRNA; None 416
T3 construct: Native protein on H929 cells (flow cytometry, siRNA knockdown) and in H929 lysates (IP/MS); RPMI-8226 cells were used for sorting with HW-97; also called IGSF4A
T3 sequence: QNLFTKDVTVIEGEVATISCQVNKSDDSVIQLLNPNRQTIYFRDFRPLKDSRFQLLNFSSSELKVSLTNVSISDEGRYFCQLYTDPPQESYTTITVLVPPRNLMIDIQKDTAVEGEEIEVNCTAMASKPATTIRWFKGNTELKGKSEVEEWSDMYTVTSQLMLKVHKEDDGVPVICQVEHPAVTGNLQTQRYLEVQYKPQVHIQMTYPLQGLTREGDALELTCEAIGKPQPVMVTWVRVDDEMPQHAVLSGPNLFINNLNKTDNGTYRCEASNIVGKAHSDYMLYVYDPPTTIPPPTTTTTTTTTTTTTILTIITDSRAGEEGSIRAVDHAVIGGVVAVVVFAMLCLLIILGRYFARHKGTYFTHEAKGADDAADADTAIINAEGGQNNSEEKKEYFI

[4] = molecular target: T4, PTPRG, endogenous in H929 multiple myeloma cells (human, UniProt P23470 20-1445); experiment: flow cytometry, H929 + ICAM1 siRNA; None 455
T4 construct: Native protein on H929 cells (flow cytometry, siRNA knockdown) and in H929 lysates (IP/MS); also called phosphatase receptor type γ
T4 sequence (P23470 20-1445 limits assumed): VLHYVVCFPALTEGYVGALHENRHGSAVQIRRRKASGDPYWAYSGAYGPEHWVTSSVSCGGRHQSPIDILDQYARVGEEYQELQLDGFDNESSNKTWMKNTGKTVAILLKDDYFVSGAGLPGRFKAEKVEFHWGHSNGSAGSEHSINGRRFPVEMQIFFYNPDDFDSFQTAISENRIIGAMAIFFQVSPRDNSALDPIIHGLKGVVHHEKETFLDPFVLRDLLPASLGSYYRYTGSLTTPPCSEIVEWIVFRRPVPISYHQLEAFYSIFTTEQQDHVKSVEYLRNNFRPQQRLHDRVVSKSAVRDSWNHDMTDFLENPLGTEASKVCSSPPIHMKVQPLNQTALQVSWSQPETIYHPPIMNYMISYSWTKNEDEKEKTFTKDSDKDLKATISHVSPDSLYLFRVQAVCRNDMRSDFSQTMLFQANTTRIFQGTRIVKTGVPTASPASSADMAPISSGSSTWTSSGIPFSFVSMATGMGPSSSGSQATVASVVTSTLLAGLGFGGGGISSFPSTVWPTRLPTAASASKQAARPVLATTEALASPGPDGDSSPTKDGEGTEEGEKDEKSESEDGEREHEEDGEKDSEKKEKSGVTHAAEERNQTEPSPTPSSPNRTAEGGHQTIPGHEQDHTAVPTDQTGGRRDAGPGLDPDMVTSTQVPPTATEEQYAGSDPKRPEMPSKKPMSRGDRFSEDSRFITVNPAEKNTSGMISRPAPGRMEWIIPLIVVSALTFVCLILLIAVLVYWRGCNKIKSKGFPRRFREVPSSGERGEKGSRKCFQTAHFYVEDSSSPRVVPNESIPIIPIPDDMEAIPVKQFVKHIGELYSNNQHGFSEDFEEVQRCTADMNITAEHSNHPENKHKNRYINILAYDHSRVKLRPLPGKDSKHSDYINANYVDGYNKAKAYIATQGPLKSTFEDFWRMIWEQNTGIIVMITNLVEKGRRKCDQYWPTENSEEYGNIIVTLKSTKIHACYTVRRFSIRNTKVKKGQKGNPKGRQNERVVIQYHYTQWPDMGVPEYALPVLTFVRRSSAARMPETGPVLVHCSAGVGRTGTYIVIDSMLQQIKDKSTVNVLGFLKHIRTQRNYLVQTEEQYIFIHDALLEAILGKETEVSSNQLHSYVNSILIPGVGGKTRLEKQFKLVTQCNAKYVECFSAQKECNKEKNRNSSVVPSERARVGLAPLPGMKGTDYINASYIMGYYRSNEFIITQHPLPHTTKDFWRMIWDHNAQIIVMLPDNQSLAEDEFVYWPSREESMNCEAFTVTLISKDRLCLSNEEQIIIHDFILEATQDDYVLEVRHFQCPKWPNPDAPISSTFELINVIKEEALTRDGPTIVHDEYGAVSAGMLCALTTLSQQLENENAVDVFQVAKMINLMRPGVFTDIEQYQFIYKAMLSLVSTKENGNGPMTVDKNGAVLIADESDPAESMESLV

[5] = molecular target: T4, PTPRG, endogenous in H929 multiple …; experiment: flow cytometry, H929 + ICAM1 siRNA; None 1.06

Row | Binder | binding result [1] | binding result [2] | mAb binding (MFI) [3] | mAb binding (MFI) [4] | Cells stained (%) [5] [%]
1 | B1 | no binding (tested: 150 ng IgG1 per well) | – | – | – | –
2 | B2 | no binding (tested: 150 ng IgG1 per well) | no binding (tested: 150 ng IgG1 per well) | 483 | – | –
3 | B3 | – | no binding (tested: 150 ng IgG1 per well) | – | 12100 | 96.9
4 | B4 | – | – | – | 24500 | 98.2
5 | B5 | no binding (tested: 150 ng IgG1 per well) | – | – | – | –
6 | B6 | – | – | 9600 | – | –
7 | B7 | – | – | 6440 | – | –
8 | B8 | – | no binding (tested: 150 ng IgG1 per well) | – | 11400 | 97.2
9 | B9 | – | – | – | 28000 | 98.4
10 | B10 | – | no binding (tested: 150 ng IgG1 per well) | – | 17900 | 97.4
11 | B11 | no binding (tested: 150 ng IgG1 per well) | – | – | – | –
